{"source": "patent US20070264195A1", "about": "(H LUNDBECK A S, published 2007)", "binders": {"B1": {"name": "Mature murine NGF (Austral Biologicals) (ligand, UniProt P01139 122-241, looked up)", "chain": "SSTHPVFHMGEFSVCDSVSVWVGDKTTATDIKGKEVTVLAEVNINNSVFRQYFFETKCRASNPVESGCRGIDSKHWNSYCTTTHTFVKALTTDEKQAAWRFIRIDTACVCVLSRKATRRG", "notes": "mature; also called nerve growth factor"}, "B2": {"name": "Rat proBDNF (produced in 293 cells, purified from conditioned medium) (ligand, UniProt P23363 19-249, looked up)", "chain": "APMKEANVHGQGNLAYPAVRTHGTLESVNGPRAGSRGLTTTSLADTFEHVIEELLDEDQKVRPNEENHKDADLYTSRVMLSSQVPLEPPLLFLLEEYKNYLDAANMSMRVRRHSDPARRGELSVCDSISEWVTAADKKTAVDMSGGTVTVLEKVPVSKGQLKQYFYETKCNPMGYTKEGCRGIDKRHWNSQCRTTQSYVRALTMDSKKRIGWRFIRIDTSCVCTLTIKRGR", "notes": "Pro-form of BDNF"}, "B3": {"name": "pro-domain of human BDNF fused to GST (glutathione S-transferase), produced in E. coli (other)", "chain": "APMKEANIRGQGGLAYPGVRTHGTLESVNGPKAGSGLTSLADTFEHVIEELLDEDQKVRPNEENNKDADLYTSRVMLSSQVPLEPPLLFLLEEYKNYLDAANMSMRVRR", "notes": "The residues 19-127 come from the description of the propart for BDNF; also called GST-pro-domain of proBDNF; pro-domain of proBDNF (a GST-fusion protein); not shown: glutathione S-transferase (GST) fusion partner"}, "B4": {"name": "Mature recombinant human BDNF (Promega #G1491) (ligand)", "chain": "HSDPARRGELSVCDSISEWVTAADKKTAVDMSGGTVTVLEKVPVSKGQLKQYFYETKCNPMGYTKEGCRGIDKRHWNSQCRTTQSYVRALTMDSKKRIGWRFIRIDTSCVCTLTIKRGR", "notes": "also called mature BDNF"}, "B5": {"name": "recombinant human p75 neurotrophin receptor/Fc chimera (R&D Systems) (Fc fusion, UniProt P08138 29-250, looked up)", "chain": "KEACPTGLYTHSGECCKACNLGEGVAQPCGANQTVCEPCLDSVTFSDVVSATEPCKPCTECVGLQSMSAPCVEADDAVCRCAYGYYQDETTGRCEACRVCEAGSGLVFSCQDKQNTVCEECPDGTYSDEANHVDPCLPCTVCEDTERQLRECTRWADAECEEIPGRWITRSTPPEGSDSTAPSTQEPEAPPEQDLIASTVAGVVTTVMGSSQPVVTRGTTDN", "notes": "Bought reagent; also called p75-IgG-Fc chimeric protein; p75NTR; not shown: IgG Fc of the bought chimera"}, "B6": {"name": "human NGF-propeptide expressed in E. coli (peptide)", "chain": "EPHSESNVPAGHTIPQVHWTKLQHSLDTALRRARSAPAAAIAARVAGQTRNITVDPRLFKKRRLRSPRVLFSTQPPREAADTQDLDFEVGGAAPFNRTHRSKR", "notes": "The residues 19-121 come from the description of the propart for NGF; also called proNGF propeptide; propeptide of proNGF"}}, "key": {"[1]": {"biological_target": "B5", "test": "SPR (BIAcore), 50-500 nM NGF over p75-IgG-Fc immobilized at 91.5 fmol/mm2", "experimental": "(§1) FIG. 2: Characterization of NGF binding to p75, TrkA, and Sortilin as measured by surface plasmon resonance analysis (BIAcore). Binding of 50-500 nM NGF was measured to 91.5 fmol/mm² immobilized p75-IgG-Fc chimeric protein (upper panel), to 66 fmol/mm² immobilized TrkA-IgG-Fc (middle panel), and to 51 fmol/mm² purified Sortilin extracellular domain (lower panel)."}, "[2]": {"biological_target": "T1, purified human Sortilin extracellular domain (human, UniProt Q99523 78-755)", "T1 construct": "also called immobilized Sortilin; NTR-3", "T1 sequence": "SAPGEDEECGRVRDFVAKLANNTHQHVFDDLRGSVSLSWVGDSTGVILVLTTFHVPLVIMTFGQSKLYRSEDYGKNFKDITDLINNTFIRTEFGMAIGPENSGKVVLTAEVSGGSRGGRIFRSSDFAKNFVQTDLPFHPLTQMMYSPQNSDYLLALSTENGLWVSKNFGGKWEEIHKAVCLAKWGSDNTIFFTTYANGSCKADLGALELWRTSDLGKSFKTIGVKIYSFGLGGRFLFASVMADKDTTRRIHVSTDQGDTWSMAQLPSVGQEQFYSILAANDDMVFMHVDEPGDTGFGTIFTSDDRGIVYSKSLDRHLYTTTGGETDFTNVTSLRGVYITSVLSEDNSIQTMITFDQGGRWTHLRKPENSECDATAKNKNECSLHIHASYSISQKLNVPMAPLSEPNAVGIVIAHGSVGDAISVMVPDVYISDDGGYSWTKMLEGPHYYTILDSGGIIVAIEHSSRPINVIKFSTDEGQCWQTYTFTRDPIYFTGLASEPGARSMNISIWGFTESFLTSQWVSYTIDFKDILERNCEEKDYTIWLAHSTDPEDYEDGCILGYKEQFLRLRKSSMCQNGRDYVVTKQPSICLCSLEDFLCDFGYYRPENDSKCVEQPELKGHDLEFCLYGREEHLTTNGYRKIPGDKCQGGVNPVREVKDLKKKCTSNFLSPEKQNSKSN", "test": "SPR (BIAcore), 50-500 nM NGF over Sortilin extracellular domain immobilized at 51 fmol/mm2", "experimental": "as §1"}, "[3]": {"biological_target": "T2, recombinant human TrkA/Fc chimera (R&D Systems) (human, UniProt P04629-2 34-407)", "T2 construct": "Bought reagent; also called TrkA-IgG-Fc; not shown: IgG Fc of the bought chimera", "T2 sequence (P04629 other isoform, or with tags, fused parts or gaps mutant)": "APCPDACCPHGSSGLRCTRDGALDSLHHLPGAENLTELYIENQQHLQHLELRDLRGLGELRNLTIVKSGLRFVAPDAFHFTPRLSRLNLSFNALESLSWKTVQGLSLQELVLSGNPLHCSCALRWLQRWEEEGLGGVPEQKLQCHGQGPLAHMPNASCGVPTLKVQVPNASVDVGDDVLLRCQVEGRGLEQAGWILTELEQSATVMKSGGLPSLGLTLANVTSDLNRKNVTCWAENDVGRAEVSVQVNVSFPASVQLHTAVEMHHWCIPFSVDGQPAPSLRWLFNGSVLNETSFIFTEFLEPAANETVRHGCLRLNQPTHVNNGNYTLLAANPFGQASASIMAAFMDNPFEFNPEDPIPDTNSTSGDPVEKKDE", "test": "SPR (BIAcore), 50-500 nM NGF over TrkA-IgG-Fc immobilized at 66 fmol/mm2", "experimental": "as §1"}, "[4]": {"biological_target": "T1, purified human Sortilin extracellular …", "test": "SPR (BIAcore), 5-500 nM proBDNF over Sortilin extracellular domain immobilized at 94 fmol/mm2", "source_text": "(§2) FIG. 7: Characterization of proBDNF and BDNF binding to purified Sortilin as measured by surface plasmon resonance (BIAcore). Rat proBDNF was produced in 293 cells as described in Lee, R., Kermani, P., Teng, K. K. & Hempstead, B. L. Regulation of cell survival by secreted proneurotrophins. Science 294, 1945-1948 (2001). and purified from the conditioned medium. Mature recombinant human BDNF was from Promega (#G1491) and the pro-domain of human BDNF fused to GST (glutathione S-transferase) was produced in E. coli and purified by glutathione-sepharose affinity chromatography. Binding of 5-500 nM proBDNF (upper panel), pro-domain of proBDNF (a GST-fusion protein, middle panel) or BDNF (lower panel) was measured to 94 fmol/mm2 immobilized purified Sortilin extracellular domain. The experiment was carried out essentially as described for FIGS. 2-4."}, "[5]": {"biological_target": "T1, purified human Sortilin extracellular …", "test": "SPR (BIAcore), 5-500 nM GST-pro-domain over Sortilin extracellular domain immobilized at 94 fmol/mm2", "source_text": "as §2"}, "[6]": {"biological_target": "T1, purified human Sortilin extracellular …", "test": "SPR (BIAcore), other preparations of mature BDNF over immobilized Sortilin; other preparations of mature BDNF"}, "[7]": {"biological_target": "T1, purified human Sortilin extracellular …", "test": "SPR (BIAcore), 5-500 nM BDNF over Sortilin extracellular domain immobilized at 94 fmol/mm2; Promega #G1491 preparation", "source_text": "as §2"}, "[8]": {"biological_target": "T3, Human recombinant proNGF (produced in E. coli) (human, UniProt P01138 19-241)", "T3 construct": "The end 241 is the end of the entry as printed", "test": "SPR (BIAcore), 25-500 nM proNGF over p75-IgG-Fc immobilized at 91.5 fmol/mm2", "experimental": "as §1, with “3:” for “2:”, “proNGF” for “NGF”, “25-500” for “50-500”"}, "[9]": {"biological_target": "B5", "test": "SPR (BIAcore), p75-IgG-Fc immobilized at 91.5 fmol/mm2", "experimental": "as §1, with “4:” for “2:”, “of” for “of NGF”, “binding of the proNGF propeptide” for “binding”, “25-500” for “50-500”, “propeptide” for “NGF”, “panel). […] There was no detectable binding to p75 and TrkA.” for “panel).”"}, "[10]": {"biological_target": "T1, purified human Sortilin extracellular …", "test": "SPR (BIAcore), 25-500 nM propeptide over Sortilin extracellular domain immobilized at 51 fmol/mm2", "experimental": "as §1, with “4:” for “2:”, “of” for “of NGF”, “binding of the proNGF propeptide” for “binding”, “25-500” for “50-500”, “propeptide” for “NGF”, “panel). […] There was no detectable binding to p75 and TrkA.” for “panel).”"}, "[11]": {"biological_target": "T2, recombinant human TrkA/Fc chimera (R&D …)", "test": "SPR (BIAcore), TrkA-IgG-Fc immobilized at 66 fmol/mm2", "experimental": "as §1, with “4:” for “2:”, “of” for “of NGF”, “binding of the proNGF propeptide” for “binding”, “25-500” for “50-500”, “propeptide” for “NGF”, “panel). […] There was no detectable binding to p75 and TrkA.” for “panel).”"}}, "data": [{"binder": "B1", "values": [{"measurement": "Kd", "setting": "[1]", "value": "~0.001", "unit": "µM"}, {"measurement": "Kd", "setting": "[2]", "value": "~0.087", "unit": "µM"}, {"measurement": "Kd", "setting": "[3]", "value": "~0.002", "unit": "µM"}]}, {"binder": "B2", "values": [{"measurement": "Kd", "setting": "[4]", "value": "~0.003", "unit": "µM"}]}, {"binder": "B3", "values": [{"measurement": "Kd", "setting": "[5]", "value": "~0.058", "unit": "µM"}]}, {"binder": "B4", "values": [{"measurement": "Kd", "setting": "[6]", "value": 0.01, "unit": "µM"}, {"measurement": "Kd", "setting": "[7]", "value": "~0.04", "unit": "µM"}]}, {"binder": "B5", "values": [{"measurement": "Kd", "setting": "[8]", "value": "~0.012", "unit": "µM"}]}, {"binder": "B6", "values": [{"measurement": "binding result", "setting": "[9]", "value": "no binding (tested: 25-500 nM propeptide)"}, {"measurement": "Kd", "setting": "[10]", "value": "~0.087", "unit": "µM"}, {"measurement": "binding result", "setting": "[11]", "value": "no binding (tested: 25-500 nM propeptide)"}]}]}
